pKd: −log10 of the molar value.
Assays:
Test in all cases: IEDB peptide-MHC binding, purified MHC/competitive/fluorescence; filed as Kd, often an IC50 or EC50 that approximates it; ≥ and ≤ were set here for values at or beyond the usual limits of such assays
Details in all cases: source organism: Plasmodium falciparum 3D7
[1] = molecular target: HLA-A*02:01
[2] = molecular target: HLA-B*44:02
[3] = molecular target: HLA-B*07:02
[4] = molecular target: HLA-A*24:02
[5] = molecular target: HLA-A*03:01
[6] = molecular target: HLA-A*01:01

FDNSGISLL
pKd [1]: ≤ 3.64 | pKd [2]: ≤ 3.00

SISDYTKSL
pKd [1]: ≤ 3.45

IENNLYERL
pKd [2]: ≤ 4.22

IPPQVFDYPI
pKd [3]: ≤ 3.61

SLTHKYNEFV
pKd [1]: ≤ 3.74

VIHYGINPV
pKd [1]: 5.77

LISTDIIFL
pKd [1]: 6.21

YYPIIRKQF
pKd [4]: 7.00

KTCKYYCFK
pKd [5]: ≤ 3.93

GLSPHDTMQK
pKd [5]: 5.96

NYKQNNFPF
pKd [4]: 5.02

DSDDLKESY
pKd [6]: 5.58

IWYKYTESDF
pKd [4]: 5.95

HPFLKSGFTF
pKd [4]: 4.98 | pKd [2]: ≤ 3.00 | pKd [3]: 6.65

FTNVNQFFK
pKd [5]: 6.04 | pKd [6]: ≤ 3.00

SMTNIPMNV
pKd [1]: 6.61

NENNTTYQY
pKd [2]: 4.74

SKHPFLKSGF
pKd [2]: ≤ 3.00

LTHKYNEFV
pKd [1]: 5.62 | pKd [6]: ≤ 3.76

LPIEPKKLA
pKd [3]: ≤ 3.25

HYGINPVQL
pKd [4]: 5.17

ILISRLTLK
pKd [5]: 6.66

CRDKTSALY
pKd [6]: ≤ 3.00

DDTFEVYSEY
pKd [2]: ≤ 3.00 | pKd [6]: ≤ 3.00

FLLNLLNEHV
pKd [1]: 5.77

DTFEVYSEY
pKd [5]: ≤ 3.00 | pKd [6]: ≤ 3.00

SHPKYRNFKF
pKd [4]: 4.78

STDIIFLTMK
pKd [5]: 5.06 | pKd [6]: ≤ 3.00

YITNKNKVTI
pKd [1]: ≤ 3.00

MDFPKLLNK
pKd [5]: 5.68

WLNNDIYNV
pKd [1]: 6.80

YPIEKLGHV
pKd [3]: 6.59

NLFFQNKSI
pKd [1]: ≤ 3.00

NTVKCPNDY
pKd [6]: ≤ 3.55

SPHDTMQKDD
pKd [3]: ≤ 3.00

HYNTYKNRVF
pKd [4]: 5.52

HPMPINIKL
pKd [3]: 6.77

TYSIYTNFKN
pKd [4]: ≤ 4.58

LISRLTLKY
pKd [6]: 4.94

KNYDNYNMK
pKd [5]: 5.60

SLTHKYNEF
pKd [4]: 4.90

GIANDLSTL
pKd [1]: 5.24

LTMKMINNK
pKd [5]: 6.33

EWLKTCKYYC
pKd [4]: ≤ 3.24

HPKYRNFKF
pKd [3]: 6.47

EENLFEWSKT
pKd [2]: ≤ 3.00

ASFSASTGY
pKd [5]: 5.63 | pKd [2]: ≤ 4.50 | pKd [6]: ≤ 3.00

DENLKAIQI
pKd [2]: ≤ 4.04

FPKLLNKPSL
pKd [3]: ≤ 4.14

SIASKNLMWV
pKd [1]: ≤ 3.55 | pKd [5]: ≤ 3.00 | pKd [3]: ≤ 3.00

RSKKTFLVK
pKd [5]: 6.39

KPNFWRFQDY
pKd [3]: ≤ 3.00

SSANDEQSY
pKd [6]: ≤ 4.19

NEEIIDLLNL
pKd [2]: ≤ 3.36

— the Immune Epitope Database (IEDB)
